Data on 27 molecules can be found in patent US20260209386A1 (MYTHIC THERAPEUTICS, published 2026).

First the molecules themselves.
T1: Recombinant human CCK4/PTK7 Protein (His Tag), Sino Biological 19399-H08H (human, UniProt Q13308 31-704)
T1 construct: bought protein; not shown: His tag
T1 sequence: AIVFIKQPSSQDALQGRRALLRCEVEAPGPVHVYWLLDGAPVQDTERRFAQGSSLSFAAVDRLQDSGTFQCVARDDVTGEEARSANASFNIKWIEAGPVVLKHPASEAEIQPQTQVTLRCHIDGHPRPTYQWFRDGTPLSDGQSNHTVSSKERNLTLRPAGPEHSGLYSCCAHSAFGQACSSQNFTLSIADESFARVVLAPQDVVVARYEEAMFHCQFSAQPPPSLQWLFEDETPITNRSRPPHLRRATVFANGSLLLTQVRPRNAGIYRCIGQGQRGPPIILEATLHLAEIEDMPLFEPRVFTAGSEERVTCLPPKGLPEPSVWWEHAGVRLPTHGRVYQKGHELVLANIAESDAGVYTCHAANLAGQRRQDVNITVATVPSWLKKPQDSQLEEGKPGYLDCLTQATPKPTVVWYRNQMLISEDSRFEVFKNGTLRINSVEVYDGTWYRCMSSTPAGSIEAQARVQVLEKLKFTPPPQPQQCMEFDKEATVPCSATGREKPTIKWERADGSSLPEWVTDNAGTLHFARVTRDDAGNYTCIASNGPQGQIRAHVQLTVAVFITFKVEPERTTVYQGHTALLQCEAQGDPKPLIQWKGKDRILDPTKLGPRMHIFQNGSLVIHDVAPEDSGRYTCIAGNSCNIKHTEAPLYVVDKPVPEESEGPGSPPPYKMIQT

T2: Human PTK7 Protein, His Tag, Acro Biosystems (human, UniProt Q13308 31-704)
T2 construct: Bought recombinant protein; also called CCK4; not shown: His tag
T2 sequence: T1 sequence

T3: Human PTK7 Protein, His Tag (Acro Biosystems) (human, UniProt Q13308 31-704)
T3 construct: Bought His-tagged protein; also called CCK4; not shown: His tag
T3 sequence: T1 sequence

T4: Human PTK7 Protein, His Tag (Acro Biosystems) (human, UniProt Q13308 31-704)
T4 construct: Bought recombinant protein; also called CCK4; tyrosine-protein kinase-like 7; not shown: His tag
T4 sequence: T1 sequence

B1: MYT7858 (antibody, V domains shown)
VH: QVQLVQSGPEVKKPGASVKVSCKASGYTFTDYAVHWVRQAPGKRLEWIGVISTYNDYTYNNQDFKGRVTMTRDTSASTAYMELSRLRSEDTAVYYCARGNSYFYALDYWGQGTSVTVSS
VL: EIVLTQSPATLSLSPGERATLSCRAHESVDSYGKSFMAWYQQKPGQAPRLLIYRASNLESGIPARFSGSGSGTDFTLTISSLEPEDFAVYYCQQSNEDPWTFGGGTKLEIK
notes: IgG
B2: MYT7862 (antibody, V domains shown)
VH: B1 VH
VL: B1 VL with H26S, S31H, A38H, S60H
notes: IgG
B3: MYT7963 (antibody, V domains shown)
VH: EVQLVQSGGGLVHPGGSLRLSCAGSGFTHSTYLMYWVRQAPGKTLEWVSAIGSGGDTYYADSVKGRFTISRDNAKNSLYLQMNSLRAEDMAVYYCARGLGYWGQGTLVTVSS
VL: not shown
notes: IgG
B4: MYT7970 (antibody, V domains shown)
VH: B3 VH with H29F, A50H
VL: not shown
notes: IgG
B5: MYT7987 (antibody, V domains shown)
VH: B3 VH with H29F, R97H
VL: not shown
notes: IgG
B6: MYT8003 (antibody, V domains shown)
VH: B3 VH with H29F
VL: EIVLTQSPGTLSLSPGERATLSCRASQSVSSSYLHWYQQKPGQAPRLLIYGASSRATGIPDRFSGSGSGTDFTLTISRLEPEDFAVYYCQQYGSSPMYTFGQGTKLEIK
notes: IgG
B7: MYT7972 (antibody, V domains shown)
VH: B3 VH with H29F, G52H
VL: not shown
notes: IgG
B8: MYT8017 (antibody, V domains shown)
VH: B3 VH with H29F
VL: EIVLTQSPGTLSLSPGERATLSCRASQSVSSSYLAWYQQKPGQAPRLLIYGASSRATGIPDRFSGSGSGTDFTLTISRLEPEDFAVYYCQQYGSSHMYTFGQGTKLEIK
notes: IgG
B9: MYT7973 (antibody, V domains shown)
VH: B3 VH with H29F, S53H
VL: not shown
notes: IgG
B10: MYT8016 (antibody, V domains shown)
VH: B3 VH with H29F
VL: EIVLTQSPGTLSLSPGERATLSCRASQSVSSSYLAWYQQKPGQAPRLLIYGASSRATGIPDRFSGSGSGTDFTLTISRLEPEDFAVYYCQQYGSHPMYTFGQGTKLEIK
notes: IgG
B11: MYT8019 (antibody, V domains shown)
VH: B3 VH with H29F
VL: not shown
notes: IgG
B12: MYT7988 (antibody, V domains shown)
VH: B3 VH with H29F, G98H
VL: not shown
notes: IgG
B13: MYT7986 (antibody, V domains shown)
VH: B3 VH with H29F, A96H
VL: not shown
notes: IgG
B14: MYT7989 (antibody, V domains shown)
VH: B3 VH with H29F, L99H
VL: not shown
notes: IgG
B15: MYT11258 (antibody, V domains shown)
VH: EVQLVESGGGLVQPGGSLRLSCTASGIDLHRYSMGWVRQAPGKGLEWVGIISYGGSTYYASWAKGRFTISRDTSKNTVYLQMNSLRAEDTAVYFCARVGYPGYSGYGYAFDAFDPWGQGTLVTVSS
VL: EIVMTQSPSTLSASVGDRVIITCQSSKSVYNDNWLSWYQQKPGKAPKLLIYGASTLASGVPSRFSGSGSGAEFTLTISSLQPDDFATYYCAGGYSSSSDNGFGQGTKLTVL
notes: MYT9792 variant, His at VH 30 (H1 05)
B16: MYT11279 (antibody, V domains shown)
VH: B15 VH with H30S, G65H
VL: B15 VL
notes: MYT9792 variant, His at VH 65 (H2 16)
B17: MYT11285 (antibody, V domains shown)
VH: B15 VH with H30S, P101H
VL: B15 VL
notes: MYT9792 variant, His at VH 101 (H3 06)
B18: MYT11309 (antibody, V domains shown)
VH: B15 VH with H30S
VL: B15 VL with V29H
notes: MYT9792 variant, His at VL 29 (L1 06)
B19: MYT11267 (antibody, V domains shown)
VH: B15 VH with H30S, Y53H
VL: B15 VL
notes: MYT9792 variant, His at VH 53 (H2 04)
B20: MYT11263 (antibody, V domains shown)
VH: B15 VH with H30S, G35H
VL: B15 VL
notes: MYT9792 variant, His at VH 35 (H1 10)
B21: MYT11289 (antibody, V domains shown)
VH: B15 VH with H30S, G105H
VL: B15 VL
B22: MYT11272 (antibody, V domains shown)
VH: B15 VH with H30S, Y58H
VL: B15 VL
notes: MYT9792 variant, His at VH 58 (H2 09)
B23: MYT11322 (antibody, V domains shown)
VH: B15 VH with H30S
VL: B15 VL with A57H
notes: MYT9792 variant, His at VL 57 (L2 06)
B24: MYT11093 (antibody, V domains shown)
VH: EVQLVESGGGLVQPGGSLRLSCTASGLSLSSYWMSWVRQAPGKGLEWVGVISAGGNTYYANWAKGRFTISRDTSKNTVYLQMNSLRAEDTAVYFCARGDDGYTNAAYVSNLWGQGTLVTVSS
VL: EIVMTQSPSTLSASVGDRVIITCQASQSISSWLSWYQQKPGKAPKLLIYKASTLASGVPSRFSGSGSGAEFTLTISSLQPDDFATYYCQSYHDSTTIAFGQGTKLTVL
notes: MYT9361 LC variant
B25: MYT11409 (antibody, V domains shown)
VH: EVQLVESGGGLVQPGGSLRLSCTASGIDLSNYAVIWVRQAPGKGLEWVGIIYTYDTTYYANWAKGRFTISRDTSKNTVYLQMNSLRAEDTAVYFCARSFSDISDLIKLWGQGTLVTVSS
VL: EIVMTQSPSTLSASVGDRVIITCQASQSLYNNKDLAWYQQKPGKAPKLLIYEASKLASGVPSRFSGSGSGAEFTLTISSLQPDDFATYYCLGEFSCGHGDCLAFGQGTKLTVL
notes: MYT9797 LC variant; captured via anti-human Fc
B26: MYT11417 (antibody, V domains shown)
VH: B25 VH
VL: B25 VL with D34A, H98S
notes: MYT9797 LC alanine variant; captured via anti-human Fc
B27: MYT11410 (antibody, V domains shown)
VH: B25 VH
VL: B25 VL with H98S, G99H
notes: as for B25

Residue numbers refer to the chain shown, from its start.

One assay concerns the target T1, Recombinant human CCK4/PTK7 Protein …. The assay is described as follows: BLI, antibody on anti-human Fc sensor. A general note: In BLI a coated tip is dipped into the sample, and binding shifts an interference pattern.
For B1, the binding result is given as “no binding (tested: 50 nM PTK7)”. The same measure, in the same setting: for B2 the value was “no binding (tested: 50 nM PTK7)”.

As to B3, the binding result is on record as “no binding (tested: 50 nM PTK7)”.

Consider B4, for which the binding result was “no binding (tested: 50 nM PTK7)”. Same read-out and setting: for B5 the value was “no binding (tested: 50 nM PTK7)”; for B6, “no binding (tested: 50 nM PTK7)”; for B7, “no binding (tested: 50 nM PTK7)”. For B8, the binding result is recorded as “no binding (tested: 50 nM PTK7)”. Same read-out and setting: for B9 the value was “no binding (tested: 50 nM PTK7)”; for B10, “no binding (tested: 50 nM PTK7)”. On the same count and under the same terms, for B11 the value was “no binding (tested: 50 nM PTK7)”; for B12, “no binding (tested: 50 nM PTK7)”. On the same count and under the same terms, for B13 the value was “no binding (tested: 50 nM PTK7)”. Consider B14, for which the binding result is reported as “no binding (tested: 50 nM PTK7)”.

For another assay, the target named is T2, Human PTK7 Protein, His Tag, Acro …. The assay is described as follows: BLI, anti-human Fc capture, 50 nM PTK7; 1 = pH dependent binding relative to parent.
Take B15: the binding result is listed as “binds”. For the molecule B16, the binding result is “binds”. Consider B17, for which the binding result was “binds”. The same measure, in the same setting: the entry for B18 is “binds”. For the molecule B19, the binding result is on record as “binds”. The same measure, in the same setting: the entry for B20 is “binds”; for B21 it is “binds”; for B22 it is “binds”. Still for that read-out and setting: the entry for B23 is “binds”.

The next assay deals with T3, Human PTK7 Protein, His Tag (Acro …). The assay is described as follows: BLI (Octet), antibody on anti-human Fc sensor, 50 nM PTK7; grade 1 = pH dependent binding relative to parent.
Regarding B24, the binding result is reported as “binds”.

In a further assay the target is T4, Human PTK7 Protein, His Tag (Acro …). Kind of assay: BLI, antibody on anti-human Fc sensor, 50 nM PTK7 at pH 7.4, dissociation at pH 7.4 or 5.4; 1 = pH dependent binding relative to parent.
Regarding B25, the binding result was “binds”.

Consider B26, for which the binding result is reported as “binds”. Still for that read-out and setting: for B27 the value was “binds”.
